Results taken from patent publication US20110144317A1, “MUTANTS OF GLYCOSIDE HYDROLASES AND USES THEREOF FOR SYNTHESIZING COMPLEX OLIGOSACCHARIDES AND DISACCHARIDE INTERMEDIATES” (priority 2008, published 2011).
Substitutions are numbered along the chain they refer to. Numbers in names are those of the source.

Assays:
Assay type in all cases: biochemical
[1] = Screening of AS single mutant library for glucosylation of α-L-Rhap-OMe (HPLC); conditions: FIG. 6
Description: The protocol was established to enable the rapid identification of clones able to glucosylate α-L-Rhap-OMe (formula II). To obtain higher amounts of enzymes and facilitate detection of glucosylated compounds upon HPLC screening, mutants were produced in 96-DeepWell Format plates. Storage microplates containing monomutants were thawed and replicated to inoculate a starter culture in 96-well microplates containing, in each well, 150 μL LB medium supplemented with ampicillin (100 μg/mL). After growth for 24 h at 30° C. under agitation (200 rpm), plates were duplicated into 96-Deep Well plates containing, in each well, 1.1 mL LB medium supplemented with ampicillin (100 μg/mL) and IPTG (1 mM) to induce GST-AS expression. Cultures were then grown for 24 h at 30° C. under agitation (200 rpm). […]
Efficiency of the glucosylation reaction was evaluated by HPLC analysis of the acceptor reaction product synthesized when using α-L-Rhap-OMe as acceptor using a Dionex P 680 series pump, a Shodex RI 101 series refractometer, a Dionex UVD 340 UV/Vis detector and an autosampler HTC PAL. […]
For each of the 7 selected positions, 19 single mutants were generated (corresponding to each possible amino acid change). […] Both sucrose consumption and disaccharide formation were determined in order to calculate the glucosylation rate defined as the molar ratio of monoglucosylated acceptor versus/sucrose consumed.

[2] = Comparison of products synthesized by wild type and AS variant I228Y (HPAEC/HPLC); conditions: for recognition of α-L-RhapO-Me as an acceptor: purified enzyme, HPLC, FIG. 7A
Description: All assays were performed at 30° C. in 50 mM Tris buffer, pH=7.0.
Comparison of products synthesized by wild type and AS variant. Reactions were performed in the presence of 146 mM sucrose alone or supplemented with 146 mM acceptor. The purified wild-type or mutated GST/AS were employed at 0.5 U/mL. The reactions were stopped by heating at 95° C. for […]. The final mixture was centrifuged at 18 000 g for 5 min.
Soluble and insoluble oligosaccharides produced during the reaction were identified by HPAEC using a Dionex Carbo-Pack PA100 column at 30° C. Before analysis, the insoluble fraction was solubilised in KOH at a final total sugar concentration of 10 g/kg. Mobile phase (150 mM NaOH) was set at 1 mL/min flow rate with a sodium acetate gradient (going from 6 to 500 mM within 120 min). Detection was performed using a Dionex ED40 module with a gold working electrode and an Ag/AgCl pH reference. Note that α-L-Rhap-OMe (acceptor) and its derivatives are not oxidable products and thus are not detectable by HPAEC. Sucrose, glucose, fructose, α-L-Rhap-OMe (acceptor) and its derivatives (glucosylation products) were quantified by HPLC, as previously described.

[3] = Determination of kinetic parameters (catalytic efficiency) of ASNPwt and I228Y; conditions: for activation in the presence of α-L-RhapO-Me: increasing concentration of acceptor, FIG. 7D(b), 7E
Description: Catalytic efficiency (Eff=kcat/KM) of ASNPwt and I228Y variant were determined with both sucrose (D=Donor) and methyl α-L-rhamnopyranoside (A=Acceptor) as variable substrates. For the determination of the catalytic efficiency for D, A was held constant at 250 mM and D was varied between 0 and 600 mM. For the determination of the catalytic efficiency for A, D was held constant at 250 mM and A was varied between 0 and 500 mM. Experiments were performed until A and D solubility limits were reached. For each experiment, two distinct reaction velocities were determined: (1) the donor consumption determined by the release of fructose (called Vi (F)), corresponding to the overall kinetics of the different reactions described in FIG. 3 and (2) the acceptor glucosylation determined by the formation of α-D-Glcp-(1→3)-α-L-RhapOMe (called Vi(Dp2)), corresponding to the kinetics of the reaction of interest.
Initial velocities were fitted to the Michaelis-Menten equation using Sigma-Plot. As saturation was not achieved with the mutant, efficiency was calculated by linear regression analysis of the velocity versus substrate concentration plot. Aliquots (200 μL) were removed between 0 and 60 min (at which time product formation was still linear with respect to time), heated at 95° C. for 5 min and centrifuged at 18 000 g for 5 min. The final mixtures were filtered on a 0.22 μm membrane and analyzed using HPLC material previously described. HPLC analyses were performed using two columns: 1) a Biorad HPLC Carbohydrate Analysis column (HPX-87H column (300×7.8 mm)) maintained at 30° C., using ultra-pure water as eluent with a flow rate of 0.6 mL/min; 2) a reversed phase analytical column (Synergi C18RPFusion, 4 μm, 30×4.6 mm) kept at room temperature, with 1 ml/min of ultra-pure water as eluent. HPX-87H column was used to determine the released fructose by RI detection. C18RPfusion column was used to detect the formation of α-D-Glcp-(1→3)-α-L-RhapOMe.

[4] = Enzymatic glucosylation of L-Rhap by 1G5A mutants; conditions: sucrose donor and L-Rhap acceptor 1:1, 146 mM
Description: (§1) The enzymatic reaction was carried out using sucrose as donor and rhamnose derivative as acceptor in a 1:1 ratio (146 mM for L-Rhap, 50 mM for α-L-Rhap-OAll).
(§2) Efficiency of the glucosylation reaction was evaluated by HPLC analysis of the acceptor reaction product synthesized using a reversed phase analytical column (Synergi C18RPFusion, 4 μm, 30×4.6 mm) (when testing L-Rhap) and a Biorad HPLC Carbohydrate Analysis column (HPX-87K column (300×7.8 mm)) when testing α-L-Rhap-OAll. (cf. Example 1/Materials and Methods/Screening of mutant library)

[5] = Enzymatic glucosylation of α-L-Rhap-OAll by 1G5A mutants; conditions: sucrose donor and α-L-Rhap-OAll acceptor 1:1, 50 mM
Description: as §1, §2

[6] = 146 mM sucrose supplemented with 146 mM acceptor

B1: wild type AS: Wild type glycoside hydrolase: amylosucrase (ASNPwt) 1G5A of sequence SEQ ID NO: 13, from Neisseria polysaccharea (protein, listed as Neisseria polysaccharea)
chain: SPNSQYLKTRILDIYTPEQRAGIEKSEDWRQFSRRMDTHFPKLMNELDSVYGNNEALLPMLEMLLAQAWQSYSQRNSSLKDIDIARENNPDWILSNKQVGGVCYVDLFAGDLKGLKDKIPYFQELGLTYLHLMPLFKCPEGKSDGGYAVSSYRDVNPALGTIGDLREVIAALHEAGISAVVDFIFNHTSNEHEWAQRCAAGDPLFDNFYYIFPDRRMPDQYDRTLREIFPDQHPGGFSQLEDGRWVWTTFNSFQWDLNYSNPWVFRAMAGEMLFLANLGVDILRMDAVAFIWKQMGTSCENLPQAHALIRAFNAVMRIAAPAVFFKSEAIVHPDQVVQYIGQDECQIGYNPLQMALLWNTLATREVNLLHQALTYRHNLPEHTAWVNYVRSHDDIGWTFADEDAAYLGISGYDHRQFLNRFFVNRFDGSFARGVPFQYNPSTGDCRVSGTAAALVGLAQDDPHAVDRIKLLYSIALSTGGLPLIYLGDEVGTLNDDDWSQDSNKSDDSRWAHRPRYNEALYAQRNDPSTAAGQIYQDLRHMIAVRQSNPRFDGGRLVTFNTNNKHIIGYIRNNALLAFGNFSEYPQTVTAHTLQAMPFKAHDLIGGKTVSLNQDLTLQPYQVMWLEIA
- recognition of α-L-Rhap-OMe as acceptor / ability to form the desired disaccharide [1]: does not recognize the α-L-RhapO-Me as an acceptor
- effect of the presence of α-L-RhapO-Me in the reaction medium on the product profile [2, 6]: does not affect the product profile
- recognition of α-L-RhapO-Me as an acceptor [2, 6]: does not recognize at all α-L-RhapO-Me as an acceptor
- activation in the presence of α-L-RhapO-Me [3]: no activation
- catalytic efficiency ([3]; sucrose constant 250 mM, varied acceptor concentration): null catalytic efficiency
- Vi(Dp2) (acceptor glucosylation velocity) ([3]; sucrose constant 250 mM, varied acceptor concentration, FIG. 7E): 0
- glucosylation of L-rhamnose with α-(1→3) linkage [4]: lacks this newly described specific activity
- ability to glucosylate α-L-Rhap-OAll [5]: lacks this newly described specific activity

B2: I228Y: 1G5A (N. polysaccharea amylosucrase, SEQ ID NO: 13) single mutant, isoleucine 228 replaced by tyrosine (protein, listed as Neisseria polysaccharea)
chain: B1 chain with I228Y
- recognition of α-L-RhapO-Me as an acceptor [2, 6]: recognizes α-L-RhapO-Me as an acceptor to form in majority a Dp2
- major reaction occurring ([2]; sole presence of sucrose): Hydrolysis
- highest Dp observed (maltooligosaccharide chains) ([2]; sole presence of sucrose, 146 mM, FIG. 7B): 5
- activation in the presence of α-L-RhapO-Me [3]: clear activation
- glucosylation of L-rhamnose with α-(1→3) linkage [4]: observed for all mutants except I228Y
